According to doi:10.1101/528711:

Assays:
[1] = biological target: Atto532-tUI (UniProt Q9UMX0); test: other fluorescence titration
[2] = biological target: tIVR (UniProt P45974); test: other fluorescence titration
[3] = biological target: Atto532-tISR (UniProt P45974); test: other fluorescence titration
[4] = biological target: tUI (UniProt Q9UMX0); test: other fluorescence titration
[5] = biological target: Atto532-tUI (UniProt Q9UMX0); test: stopped-flow fluorescence kinetics

Sequence of tIVR (P45974 whole entry, looked up): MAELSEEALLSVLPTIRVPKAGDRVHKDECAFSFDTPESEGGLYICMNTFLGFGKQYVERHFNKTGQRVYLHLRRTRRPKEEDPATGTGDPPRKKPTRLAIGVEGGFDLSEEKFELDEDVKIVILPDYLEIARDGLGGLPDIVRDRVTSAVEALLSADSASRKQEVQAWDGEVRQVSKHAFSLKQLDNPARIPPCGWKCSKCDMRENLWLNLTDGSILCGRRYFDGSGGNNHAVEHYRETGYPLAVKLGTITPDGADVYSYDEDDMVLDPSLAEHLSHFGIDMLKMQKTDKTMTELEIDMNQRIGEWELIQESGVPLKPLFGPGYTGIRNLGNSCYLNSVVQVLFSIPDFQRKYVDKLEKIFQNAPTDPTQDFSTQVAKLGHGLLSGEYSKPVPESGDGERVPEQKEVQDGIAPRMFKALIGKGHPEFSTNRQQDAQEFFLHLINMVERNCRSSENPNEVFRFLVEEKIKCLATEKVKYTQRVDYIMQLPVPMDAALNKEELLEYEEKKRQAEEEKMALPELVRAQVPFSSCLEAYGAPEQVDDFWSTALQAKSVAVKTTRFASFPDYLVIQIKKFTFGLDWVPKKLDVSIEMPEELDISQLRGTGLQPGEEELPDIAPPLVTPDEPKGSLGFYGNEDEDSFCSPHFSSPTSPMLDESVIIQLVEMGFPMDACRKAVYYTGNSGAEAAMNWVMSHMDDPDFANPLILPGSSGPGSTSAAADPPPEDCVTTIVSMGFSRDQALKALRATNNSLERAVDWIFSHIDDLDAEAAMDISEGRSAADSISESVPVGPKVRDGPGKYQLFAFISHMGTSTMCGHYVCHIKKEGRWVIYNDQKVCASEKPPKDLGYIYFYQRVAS
Sequence of Atto532-tUI (Q9UMX0 whole entry, looked up): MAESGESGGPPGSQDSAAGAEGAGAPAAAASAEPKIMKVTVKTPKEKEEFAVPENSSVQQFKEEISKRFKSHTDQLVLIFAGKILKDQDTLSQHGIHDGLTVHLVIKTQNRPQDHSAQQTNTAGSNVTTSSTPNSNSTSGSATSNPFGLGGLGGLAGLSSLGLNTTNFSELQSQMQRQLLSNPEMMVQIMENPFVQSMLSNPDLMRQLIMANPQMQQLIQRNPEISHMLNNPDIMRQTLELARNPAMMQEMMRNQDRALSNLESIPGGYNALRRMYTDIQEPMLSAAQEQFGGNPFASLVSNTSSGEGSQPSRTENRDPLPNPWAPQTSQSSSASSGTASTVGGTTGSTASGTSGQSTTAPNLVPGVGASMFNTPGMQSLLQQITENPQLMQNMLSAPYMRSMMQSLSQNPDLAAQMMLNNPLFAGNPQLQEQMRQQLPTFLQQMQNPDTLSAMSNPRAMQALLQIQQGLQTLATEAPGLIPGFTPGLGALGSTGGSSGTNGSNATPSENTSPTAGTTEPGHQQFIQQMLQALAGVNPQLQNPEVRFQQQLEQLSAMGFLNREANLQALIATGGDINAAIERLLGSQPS
Sequence of Nedd8 (Q15843 1-76): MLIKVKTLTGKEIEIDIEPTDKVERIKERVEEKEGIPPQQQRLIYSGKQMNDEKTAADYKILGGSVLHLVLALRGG
Sequence of Atto532-tISR (P45974 whole entry, looked up): as the sequence (P45974 whole entry, looked up) above
Sequence of tUI (Q9UMX0 whole entry, looked up): as the sequence (Q9UMX0 whole entry, looked up) above

In the case of “Nedd8 (from UniProt Q15843 1-76) (natural protein)”, the fold higher affinity for Ub than Nedd8 [1] is reported as 120 fold and the fold preference for Ub over Nedd8 [2] is reported as 3000 fold.
Substance “ubiquitin (from UniProt P0CG48 1-76) (natural protein)” has a Kd [3] of 24.3 nM, a Kd [1] of 0.066 nM and a Kd [2] of 25.4 nM. For the same substance, the Ki [2] was 19 nM, the Ki [4] was 0.194 nM and the Kd [5] was 0.0564 nM.
